The results in this text go back to patent US20140235701, “NGF APTAMER AND APPLICATION THEREOF” (RIBOMIC INC., published 2014).

Common to all, as to conditions: tags: R&D Systems; chain copies: 2
The target in data set [1] is T1, NT-3 (neurotrophin-3) (Homo sapiens, UniProt P20783 P20783:139-257).
T1 sequence: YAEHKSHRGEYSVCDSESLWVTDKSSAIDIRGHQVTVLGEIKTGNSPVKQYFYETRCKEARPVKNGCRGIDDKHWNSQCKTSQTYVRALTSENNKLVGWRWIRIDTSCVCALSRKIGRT
Kind of data set: SPR; scarcely bound. How it is done:
(§1) The binding activity of these shortened forms to NGF and NT-3 was measured by the surface plasmon resonance method. For the measurement method, BIAcore2000 manufactured by BIAcore was used and CM5 reactive with amino group was used as a sensorchip, as shown in Example 1. The protein was immobilized in the same manner as in Example 1 by using ethyl-3-carbodiimide hydrochloride and N-hydroxysuccinimide. […] After protein immobilization, blocking with ethanolamine-HCl was performed. The amount of immobilized NGF and NT-3 was 3,000-4,000 RU and 3,000-5,000 RU, respectively. The aptamer for an analyte was prepared to 0.15 μM-0.5 μM. The running buffer and regeneration solution were the same as those in Example 1. NT-3 was immobilized on FC2, and NGF on FC3, and the final sensorgram was obtained by subtracting the results of FC1.
(§2) Then, the aptamers were subjected to shortening to 40 mer in the same manner as with consensus secondary structure 1. […] NT-4 was measured in the same manner as in NT-3.
(§3) The shortened sequences were measured for the binding to NGF, NT-3, NT-4 by the surface plasmon resonance method. The measurement was performed in the same manner as in Example 13.

For a further data set, the target named is T2, NT-4 (neurotrophin-4) (Homo sapiens, UniProt P34130 P34130:81-210).
T2 sequence: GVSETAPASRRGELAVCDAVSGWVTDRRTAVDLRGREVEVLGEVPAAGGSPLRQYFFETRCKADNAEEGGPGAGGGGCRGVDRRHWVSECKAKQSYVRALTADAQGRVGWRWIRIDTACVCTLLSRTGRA
Kind of data set: SPR; scarcely bound. How it is done:
as §1, §2, §3

Data set [2] addresses T3, NGF (nerve growth factor) (Homo sapiens, UniProt P01138 P01138:122-241). The experiment in a line: cell_activity; neurite; TF-1 0.193.
Data set [3] has as its target T3, NGF (nerve growth factor). Kind of data set: cell_activity; neurite; TF-1 0.296.
The target in data set [4] is T3, NGF (nerve growth factor). The experiment in a line: cell_activity; neurite; TF-1 0.455.
The target in data set [5] is T3, NGF (nerve growth factor). Kind of data set: cell_activity; neurite; TF-1 0.322.
Data set [6] concerns the target T1, NT-3 (neurotrophin-3). Kind of data set: cell_activity; TF-1.
Data set [7] has as its target T3, NGF (nerve growth factor). The experiment in a line: cell_activity; neurite; TF-1 0.087.
Data set [8] deals with T3, NGF (nerve growth factor). The experiment in a line: cell_activity; neurite; TF-1 0.266.
Data set [9] has as its target T3, NGF (nerve growth factor). Kind of data set: cell_activity; neurite; TF-1 0.311. How it is done: (§4) With the neurite length per cell obtained by the addition of NGF alone as inhibitory activity 0%, and that of the cell obtained by NGF free culture for 2 days as inhibitory activity 100%, the inhibitory activity of the aptamer was calculated from the neurite length per cell obtained by culturing with the addition of NGF and the aptamer in mixture.
(§5) Two NGF receptor (human TrkA and human p75) genes were introduced into TF-1 cells (ATCC Number: CRL-2003), which is a human erythroleukemic cell line, by using a retrovirus vector to give cells that highly express two receptors simultaneously and stably. The cells were suspended in an RPMI-1640 medium containing 20% fetal bovine serum, and seeded in a white 96 well flat-bottom plate at 1000 cells (50 μL) per well. […] With the amount of luminescence per well obtained by the addition of NGF alone and culture of the cells for 3 days as inhibitory activity 0%, and that of the well obtained by NGF free culture for 3 days as inhibitory activity 100%, the inhibitory activity of the aptamer was calculated from the amount of luminescence per well obtained by culturing with the addition of NGF and the aptamer in mixture.

Data set [10] addresses T3, NGF (nerve growth factor). Kind of data set: cell_activity; neurite; TF-1 0.183.
In data set [11] the target is T3, NGF (nerve growth factor). Kind of data set: cell_activity; neurite; TF-1 0.073.
Data set [12] concerns the target T3, NGF (nerve growth factor). Kind of data set: cell_activity; neurite; TF-1 0.024.
In data set [13] the target is T3, NGF (nerve growth factor). The experiment in a line: cell_activity; neurite; TF-1 0.016.
Data set [14] addresses T3, NGF (nerve growth factor). The experiment in a line: cell_activity; neurite; TF-1 0.047.
Data set [15] deals with T3, NGF (nerve growth factor). The experiment in a line: cell_activity; neurite; TF-1 0.363.
For data set [16], the target named is T3, NGF (nerve growth factor). The experiment in a line: cell_activity; neurite; TF-1 0.048.
Data set [17] has as its target T3, NGF (nerve growth factor). Kind of data set: cell_activity; neurite; TF-1 0.015.
Data set [18] addresses T3, NGF (nerve growth factor). The experiment in a line: cell_activity; neurite; TF-1 0.042.
Data set [19] has as its target T3, NGF (nerve growth factor). Kind of data set: cell_activity; neurite; TF-1 0.093.
The target in data set [20] is T3, NGF (nerve growth factor). The experiment in a line: cell_activity; neurite; TF-1 0.039. How it is done:
as §4, §5

Data set [21] concerns the target T3, NGF (nerve growth factor). The experiment in a line: cell_activity; neurite; TF-1 0.056.
Data set [22] deals with T3, NGF (nerve growth factor). The experiment in a line: cell_activity; neurite; TF-1 0.081.
For data set [23], the target named is T3, NGF (nerve growth factor). The experiment in a line: cell_activity; neurite; TF-1 0.097. Here is the method:
as §4, §5

Data set [24] addresses T3, NGF (nerve growth factor). The experiment in a line: cell_activity; TF-1 proliferation. Here is the method:
as §5

Data set [25] addresses T3, NGF (nerve growth factor). Kind of data set: cell_activity; neurite; TF-1 >10.

Some results are limits rather than exact numbers.

T3 sequence (P01138 122-241, one chain of several): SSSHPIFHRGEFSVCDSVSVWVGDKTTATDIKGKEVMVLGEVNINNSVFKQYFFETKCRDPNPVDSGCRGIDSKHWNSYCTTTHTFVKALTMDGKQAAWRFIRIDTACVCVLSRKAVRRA

Turning to GGGUCCUGUUCAAGAGUUUCCGUCUCGUGGACUGUUACCC (ssRNA, 2'-F C/U, dA, 2'-OH G) [SEQ ID NO: 112], the binding result with NT-3 (neurotrophin-3) [1] and with NT-4 (neurotrophin-4) was “no binding” each time. The concentration for half-maximal inhibition (IC50) in data set [2] was 0.334 nM.
For GGGUCCUGACAAAGAGUUUCCGUCUCGUUGUCUGUUACCC (ssRNA, 2'-F C/U, dA, 2'-OH G) [SEQ ID NO: 114], the binding result in the data set with NT-3 (neurotrophin-3) [1] and with NT-4 (neurotrophin-4) was “no binding” throughout. For the same molecule, the IC50 in data set [3] stood at 0.363 nM.
In turn, GGGUCCUGUUGAAGAGUUUCCGUCUCGUCAACUGUUACCC (ssRNA, 2'-F C/U, dA, 2'-OH G) [SEQ ID NO: 117] showed a half-inhibitory concentration (IC50) in data set [4] of 0.394 nM. Also, the binding result with NT-3 (neurotrophin-3) [1] and with NT-4 (neurotrophin-4) was “no binding” in each case.
Consider GGGUCCUGUUCAAGAGUUUCCGUCUCGUGAACUGUUACCC (ssRNA, 2'-F C/U, dA, 2'-OH G) [SEQ ID NO: 116], for which the binding result in the data set with NT-3 (neurotrophin-3) [1] was “no binding”. In addition, the IC50 in [5] stood at 0.411 nM.
As to GGGUCCUGGAUAAGAGUUUCCGUCUCGUAUCCUGUUACCC (ssRNA, as 82(25) except 2'-OMe C20) [SEQ ID NO: 82(26)], the concentration for half-maximal inhibition (IC50) with NT-3 (neurotrophin-3) [6] was under 30 nM; in data set [7], 0.13 nM.
In data set [8], GGGUCCUGGAUAAGAGUUUCCGUCUCGUAUCCUGUUACCC (ssRNA, as 82(48) without 5' idT; PS between G34 and U35) [SEQ ID NO: 82(63)] came in with a half-maximal inhibitory concentration (IC50) of 0.046 nM.
As for GGGUCCUGAGUAAGAGUUUCCGUCUCAUACUCUGUUACCC (ssRNA, 2'-F C/U, dA, 2'-OH G) [SEQ ID NO: 85], the IC50 in [9] was under 0.3 nM.
Turning to GGGUCCUGUCUAAGAGUUUCCGUCUCGUAGACUGUUACCC (ssRNA, 2'-F C/U, dA, 2'-OH G) [SEQ ID NO: 115], the binding result with NT-3 (neurotrophin-3) [1] and with NT-4 (neurotrophin-4) was “no binding” each time. This molecule came in with an IC50 in [10] of 0.298 nM.
In data set [11], GGGUCCUGGAUAAGAGUUUCCGUCUCGUAUCCUGUUACCC (ssRNA, as 82(25) except dU25) [SEQ ID NO: 82(40)] displayed an IC50 of 0.239 nM.
In data set [12], GGGUCCUGGAUAAGAGUUUCCGUCUCGUAUCCUGUUACCC (ssRNA, as 82(25) except 2'-OMe A10) [SEQ ID NO: 82(45)] returned an IC50 of 0.037 nM.

B1: SEQ ID NO: 78(2) (ssRNA)
RNA: GGGUCCUGGCCAAGAGUUUCCGUCUCGUGGUCUGUUACCC
modifications: 2'-OMe G (G8,G34 2'-OH), dA, 2'-F C/U except 2'-OMe U4,C6,C21,U23,C26,U28,U31,C32,U35,C38-40; 5',3' idT
The molecule B1 gave a half-inhibitory concentration (IC50) in data set [13] of 0.045 nM.
As for GGGUCCUGGAUAAGAGTUUCCGUCUCGUAUCCTGUUACCC (ssRNA, as 82(25) except dT17,dT33,dU36) [SEQ ID NO: 163], in data set [14], half-maximal inhibition (IC50) required 0.113 nM.
In data set [15], GGGUCCUGUCUAAGAGUUUCCGUCUCGUAGACUGUUACCC (ssRNA, 2'-F C/U, dA, 2'-OH G) [SEQ ID NO: 111] came in with a concentration for half-maximal inhibition (IC50) of 0.252 nM.
Turning to GGGUCCUGGAUAAGAGTUUCCGUCUCGUAUCCTGUUACCC (ssRNA, as 82(25) except dU7,dT17,dT33) [SEQ ID NO: 164], in data set [16], the IC50 amounted to 0.132 nM.

B2: SEQ ID NO: 78(3) (ssRNA)
RNA: B1 RNA
modifications: 2'-OMe G (G8,G34 2'-OH), dA, 2'-F C/U except 2'-OMe U4,C6,C10,C11,C21,U23,C26,U28,C32,U35,C38-40; 5',3' idT
As for B2, in [17], the IC50 was found to be 0.045 nM.
Molecule GGGUCCUGGAUAAGAGUUUCCGUCUCGUAUCCUGUUACCC (ssRNA, as 82(25) except dU36) [SEQ ID NO: 82(41)] came in with a half-inhibitory concentration (IC50) in [18] of 0.084 nM.
In turn, GGGUCCUGGAUAAGAGUUUCCGUCUCGUAUCCUGUUACCC (ssRNA, as 82(1) except dC5) [SEQ ID NO: 82(27)] yielded a 50% inhibitory concentration (IC50) in data set [19] of 0.25 nM.
Turning to GGGUCCUGGAUAAGAGTUUCCGUCUCGUAUCCTGUUACCC (ssRNA, as 82(25) except dT17,dT33,dU36, 2'-OMe A37) [SEQ ID NO: 165], in data set [20], half-maximal inhibition (IC50) required 0.139 nM.
In data set [21], GGGUCCUGGAUAAGAGUUUCCGUCUCGUAUCCUGUUACCC (ssRNA, as 82(25) except 2'-OMe A10,A15,A29,A37) [SEQ ID NO: 82(48)] had a 50% inhibitory concentration (IC50) of 0.252 nM.
As for GGGUCCUGGAUAAGAGUUUCCGUCUCGUAUCCUGUUACCC (ssRNA, as 82(48) without 5' idT; PS between A12 and A13) [SEQ ID NO: 82(60)], the midpoint of inhibition in data set [22], the IC50, lay at 0.034 nM.
In the case of GGGUCCUGGAUAAGAGUUUCCGUCUCGUAUCCUGUUACCC (ssRNA, as 82(25) except dU7) [SEQ ID NO: 82(37)], in data set [23], the IC50 amounted to 0.098 nM.
In data set [24], GGGUCCUGCUGCGGAGUUUCCGUCUCGGUGGCUGUUACCC (ssRNA, 2'-OMe G (G8,G34 2'-OH), dA, 2'-F C/U; 5',3' idT) [SEQ ID NO: 62(1)] had a concentration for half-maximal inhibition (IC50) of 0.49 nM.
As to GGGUCCUGCUGCGUAGUUUCCUUCUGCGUGGUUGUUACCC (ssRNA, 2'-F C/U, dA, 2'-OH G) [SEQ ID NO: 86], in data set [25], the IC50 stood at 0.834 nM.
